The source of these data is patent publication US20240376224A1 (University of California, published 2024).

Experiment [1] deals with T1, mouse fl-CDCP1 (recombinant uncleaved mouse CDCP1) (mouse, UniProt Q5U462 30-666).
T1 construct: The mouse antigen made was fl-CDCP1-Fc; also called mouse fl-CDCP1-Fc
T1 sequence: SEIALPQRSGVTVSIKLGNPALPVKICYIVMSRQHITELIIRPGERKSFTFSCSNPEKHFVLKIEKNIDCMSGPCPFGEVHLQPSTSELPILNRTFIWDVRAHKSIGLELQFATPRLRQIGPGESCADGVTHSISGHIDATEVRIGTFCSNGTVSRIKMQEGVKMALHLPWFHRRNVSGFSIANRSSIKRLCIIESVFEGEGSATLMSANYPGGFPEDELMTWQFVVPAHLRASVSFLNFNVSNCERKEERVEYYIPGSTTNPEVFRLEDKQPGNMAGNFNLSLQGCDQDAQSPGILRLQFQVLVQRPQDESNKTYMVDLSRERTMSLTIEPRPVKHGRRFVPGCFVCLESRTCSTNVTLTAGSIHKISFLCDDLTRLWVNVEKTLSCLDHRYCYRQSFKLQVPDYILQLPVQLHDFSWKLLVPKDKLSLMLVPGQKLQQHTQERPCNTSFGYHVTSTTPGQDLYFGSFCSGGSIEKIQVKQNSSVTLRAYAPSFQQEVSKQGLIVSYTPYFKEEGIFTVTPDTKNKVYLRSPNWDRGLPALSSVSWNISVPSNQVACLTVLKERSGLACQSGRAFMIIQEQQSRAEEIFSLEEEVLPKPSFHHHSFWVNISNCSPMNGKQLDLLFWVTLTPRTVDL
Kind of experiment: BLI (Octet), mouse fl-CDCP1-Fc on the sensor, IgG CL03 as analyte. (BLI is a label-free optical method that tracks binding on a fibre tip over time.)

Experiment [2] has as its target T2, cleaved human CDCP1 on the cell surface (endogenous, PDAC cells) (human) (UniProt Q9H5V8).
T2 sequence 1: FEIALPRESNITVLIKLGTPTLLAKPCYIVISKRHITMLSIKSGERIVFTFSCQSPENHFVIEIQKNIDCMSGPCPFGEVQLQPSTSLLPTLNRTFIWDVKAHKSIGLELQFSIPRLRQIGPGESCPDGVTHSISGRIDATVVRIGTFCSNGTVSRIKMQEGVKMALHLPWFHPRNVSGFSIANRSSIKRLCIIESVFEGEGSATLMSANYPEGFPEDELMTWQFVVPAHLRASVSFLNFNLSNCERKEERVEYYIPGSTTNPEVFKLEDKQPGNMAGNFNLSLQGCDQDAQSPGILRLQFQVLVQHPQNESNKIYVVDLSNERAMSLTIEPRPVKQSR
T2 sequence 2: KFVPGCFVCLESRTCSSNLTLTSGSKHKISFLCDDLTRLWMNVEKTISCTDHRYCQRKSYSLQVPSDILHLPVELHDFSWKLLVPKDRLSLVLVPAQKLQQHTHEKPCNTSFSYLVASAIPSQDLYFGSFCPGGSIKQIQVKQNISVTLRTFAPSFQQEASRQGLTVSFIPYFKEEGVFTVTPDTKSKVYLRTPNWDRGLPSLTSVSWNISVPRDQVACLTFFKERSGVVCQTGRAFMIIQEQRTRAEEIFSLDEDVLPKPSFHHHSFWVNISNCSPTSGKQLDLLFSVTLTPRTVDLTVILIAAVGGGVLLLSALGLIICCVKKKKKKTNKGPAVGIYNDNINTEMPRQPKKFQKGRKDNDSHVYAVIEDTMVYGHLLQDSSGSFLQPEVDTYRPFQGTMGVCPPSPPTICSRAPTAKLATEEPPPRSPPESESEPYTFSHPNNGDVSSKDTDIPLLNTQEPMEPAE
Nature of the experiment: dose-response flow cytometry on PL5 cells; PL5 cells.

For experiment [3], the target named is T3, mouse c-CDCP1 (recombinant cleaved mouse CDCP1) (mouse, UniProt Q5U462 30-368; Q5U462 369-666, limits assumed).
T3 construct: Mouse antigens made were c-CDCP1-Fc (Cut 1) and (Cut 2); also called mouse cleaved CDCP1; cleaved mCDCP1
T3 sequence 1: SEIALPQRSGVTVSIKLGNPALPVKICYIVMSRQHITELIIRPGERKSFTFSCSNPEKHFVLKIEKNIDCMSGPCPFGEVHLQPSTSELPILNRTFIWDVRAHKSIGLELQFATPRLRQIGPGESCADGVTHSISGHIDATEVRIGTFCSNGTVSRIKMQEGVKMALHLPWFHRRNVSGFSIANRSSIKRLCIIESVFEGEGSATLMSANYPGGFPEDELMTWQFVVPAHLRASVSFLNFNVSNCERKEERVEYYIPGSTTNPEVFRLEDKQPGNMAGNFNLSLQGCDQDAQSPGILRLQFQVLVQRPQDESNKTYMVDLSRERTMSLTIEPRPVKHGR
T3 sequence 2: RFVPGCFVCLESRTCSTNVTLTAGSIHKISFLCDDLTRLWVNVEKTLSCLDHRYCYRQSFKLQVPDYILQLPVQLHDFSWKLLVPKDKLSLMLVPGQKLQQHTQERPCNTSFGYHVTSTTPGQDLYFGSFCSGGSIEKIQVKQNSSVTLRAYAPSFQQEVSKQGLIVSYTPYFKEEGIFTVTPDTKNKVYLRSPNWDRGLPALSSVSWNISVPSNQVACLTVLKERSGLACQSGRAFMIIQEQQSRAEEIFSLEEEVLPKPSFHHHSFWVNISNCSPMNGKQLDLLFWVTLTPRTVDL
Kind of experiment: BLI (Octet), mouse c-CDCP1-Fc on the sensor, IgG CL03 as analyte.

B1: CL03 IgG (antibody, V domains shown)
VH: EVQLVESGGGLVQPGGSLRLSCAASGFNFSSYSIHWVRQAPGKGLEWVASIYPYSGSTYYADSVKGRFTISADTSKNTAYLQMNSLRAEDTAVYYCARQSHSYYSHTWWVSYGMDYWGQGTLVTVSS
VL: DIQMTQSPSSLSASVGDRVTITCRASQSVSSAVAWYQQKPGKAPKLLIYSASSLYSGVPSRFSGSRSGTDFTLTISSLQPEDFATYYCQQSGQRPITFGQGTKVEIKR
notes: also called IgG CL03
In the case of B1, the binding result in experiment [1] and in experiment [3] was “no binding (tested: not printed)” in each case. The molecule also had an EC50 in experiment [2] of 14.1 nM.

For orientation: EC50 means the concentration at which the effect is half-maximal.
